Measured values from US20250011363A1, “OPTIMIZED SHORTENED PEPTIDE THAT BINDS TO ACETYLCHOLINE RECEPTOR, AND USE THEREOF” (SKINMED CO., LTD., priority 2021, published 2025).

Target: acetylcholine receptor
Test: SPR, AchR immobilized on CM5 chip, peptide at 10 µM

Binder | Binding affinity (RU)
RWICK [5mer-99] | 58
KWIQR [5mer-399] | 62
KVIRK [5mer-100] | 80

Target: acetylcholine receptor
Test: SPR, peptide at 10 µM on acetylcholine receptor

Binder | Binding affinity (RU)
RQLCK [5mer-360] | 66
RLILK [5mer-61] | 66
RSYQR [5mer-361] | 58
KQLTK [5mer-62] | 70
KQRLK [5mer-362] | 62
RLLRK [5mer-63] | 86
KRVRK [5mer-363] | 59
KVVTR [5mer-64] | 76
RWITR [5mer-364] | 62
RQIRR [5mer-65] | 67
KRRYK [5mer-365] | 52
KRLLR [5mer-66] | 80
RQLQK [5mer-366] | 52
RQLYR [5mer-67] | 86
RSVQK [5mer-367] | 71
RGFYK [5mer-68] | 82
KRIRR [5mer-368] | 50
RSRSR [5mer-69] | 50
RGFTR [5mer-369] | 84
RLLQR [5mer-70] | 69
KWRRK [5mer-370] | 67
KLQSK [5mer-71] | 68
RGISK [5mer-371] | 86
KLYRR [5mer-72] | 50
RSVCR [5mer-372] | 54
KVFTK [5mer-373] | 87

Binder | Binding affinity (RU)
RQITK [5mer-74] | 87
KLFTR [5mer-374] | 75
KVQTK [5mer-75] | 63
KQLCR [5mer-375] | 84
RGYRR [5mer-76] | 80
KGQLR [5mer-376] | 65
KWRQK [5mer-77] | 74
KGFYK [5mer-377] | 67
KVICK [5mer-78] | 79
RRLSK [5mer-378] | 65
RWFLR [5mer-79] | 82
KSRLR [5mer-379] | 79
KSRTR [5mer-80] | 83
KRYLK [5mer-380] | 82
RGIYR [5mer-81] | 79
KGQRR [5mer-381] | 87
RQRYK [5mer-82] | 84
RLRQR [5mer-382] | 62
KGFSR [5mer-83] | 64
RWQRK [5mer-383] | 56
RVVRR [5mer-84] | 67
KSLRK [5mer-384] | 75
KGVLK [5mer-85] | 74
RGVYR [5mer-385] | 51
RRLCK [5mer-86] | 55
RSFLK [5mer-386] | 78

Binder | Binding affinity (RU)
RQITR [5mer-87] | 55
RRILR [5mer-387] | 52
RRVQK [5mer-88] | 73
KLFCK [5mer-388] | 78
KRITK [5mer-89] | 77
KWRRR [5mer-389] | 57
RWYTK [5mer-90] | 86
KRFCR [5mer-390] | 64
RQIQK [5mer-91] | 55
KVFRR [5mer-391] | 72
RVRLK [5mer-92] | 62
RSRLR [5mer-392] | 87
KWVYR [5mer-93] | 79
KSLQR [5mer-393] | 75
RWFQR [5mer-94] | 50
KRRRK [5mer-394] | 66
RGRRK [5mer-95] | 68
RWVCK [5mer-395] | 50
RVLYR [5mer-96] | 55
KVVCR [5mer-396] | 53
KRQLR [5mer-97] | 52
RRITK [5mer-397] | 52
KWYCK [5mer-98] | 68
KGQCR [5mer-398] | 71
